The test system of data set [1] is wild type yeast cells. The format is cell-based.
Data set [2] concerns the target MazF (Escherichia coli, UniProt P0A850+P0AE70).
Procedure: The reaction was carried out as described in the text. Fluorescence was measured at 635 nm with excitation at 550 nm.
In a pilot experiment, we synthesized a small amount of CBS-1 and performed the cleavage reaction with use of purified MazF. The MIase reaction was carried out as follows; 5 μl (5×) MazF buffer (50 mM Tris-HCl, pH 7.8), 10 μl distilled water and 5 μl of CBS-1 solution (2 pmol/μl) were mixed and the mixture was preincubated at 37° C. The reaction was started by adding different concentrations of MazF (5 μl) (see FIG. 5). The excitation and emission wavelengths used were 550 and 635 nm, respectively.
MazF used in this reaction is fused to the trigger factor (a cold-shock molecular chaperone used for high expression of MazF).
The target in data set [3] is T1, HipA, His-tagged at the C-terminal end (E. coli K12, UniProt P23874 1-440).
T1 construct: not shown: C-terminal His tag from pET21
T1 sequence (looked up): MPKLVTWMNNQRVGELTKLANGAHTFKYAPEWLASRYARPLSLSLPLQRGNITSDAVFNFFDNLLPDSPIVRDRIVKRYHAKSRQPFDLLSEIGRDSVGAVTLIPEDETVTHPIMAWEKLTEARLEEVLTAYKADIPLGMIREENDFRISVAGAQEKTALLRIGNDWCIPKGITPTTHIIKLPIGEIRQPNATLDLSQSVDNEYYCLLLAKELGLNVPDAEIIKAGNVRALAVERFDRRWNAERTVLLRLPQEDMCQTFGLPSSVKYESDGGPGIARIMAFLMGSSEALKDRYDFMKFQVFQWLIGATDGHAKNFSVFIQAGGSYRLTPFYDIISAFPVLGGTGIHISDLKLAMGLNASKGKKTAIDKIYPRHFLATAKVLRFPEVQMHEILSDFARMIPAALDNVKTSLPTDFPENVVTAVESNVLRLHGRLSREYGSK
The data set can be described thus: Ni-NTA purification of the complex via the His-tagged toxin.

For data set [4], the target named is T2, ChpBK, His-tagged at the C-terminal end (E. coli K12, UniProt P33647 1-116).
T2 construct: not shown: C-terminal His tag from pET21
T2 sequence (looked up): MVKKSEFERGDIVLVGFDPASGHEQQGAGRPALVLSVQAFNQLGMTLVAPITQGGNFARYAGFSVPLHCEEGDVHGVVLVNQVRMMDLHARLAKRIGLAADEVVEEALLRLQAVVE
The data set is described as above.

Data set [5] has as its target T3, YdcE (B. subtilis, UniProt P96622 1-116).
T3 construct: also called MazF homologue from B. subtilis
T3 sequence (looked up): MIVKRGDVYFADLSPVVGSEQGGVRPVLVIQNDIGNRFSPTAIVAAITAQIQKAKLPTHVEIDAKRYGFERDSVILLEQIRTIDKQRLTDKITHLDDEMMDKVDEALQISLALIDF
In words: purification of the toxin-antitoxin complex.

Data set [6] addresses T4, RelE, His-tagged at the C-terminal end (E. coli K12, UniProt P0C077 1-95).
T4 construct: not shown: C-terminal His tag from pET21
T4 sequence (looked up): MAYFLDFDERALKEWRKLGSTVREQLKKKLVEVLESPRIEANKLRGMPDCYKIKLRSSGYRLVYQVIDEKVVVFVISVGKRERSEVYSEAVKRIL
The data set can be described thus: Ni-NTA purification of the complex via the His-tagged toxin.

In data set [7] the target is T5, MazF, His-tagged at the C-terminal end (E. coli K12, UniProt P0AE70 1-111).
T5 construct: not shown: C-terminal His tag from pET21
T5 sequence (looked up): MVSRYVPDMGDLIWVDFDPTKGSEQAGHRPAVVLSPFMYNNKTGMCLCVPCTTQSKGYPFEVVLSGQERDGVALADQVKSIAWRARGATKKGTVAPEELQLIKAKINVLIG
The data set is described as above.

Data set [8] concerns ompA and ompF mRNAs. The format is cell-based, E. coli. As to conditions: 2-h induction of YoeB with arabinose.
The test system of data set [9] is E. coli cells. It is filed as cell-based. The settings on record: arabinose-inducible pBAD vector.
Data set [10] relates to lpp mRNA. The format is cell-based, E. coli.
The test system of data set [11] is translation initiation complex. In words: Toeprinting assay on a translation initiation complex (mazG mRNA fragment, 70S ribosomes). It is filed as biochemical, E. coli. As to conditions: only in the presence of ribosomes.
Data set [12] deals with cellular mRNAs (ompA, tufA, ompF) and polysomes. The data set can be described thus: Northern blot and polysome pattern after Doc induction (pBAD, arabinose).
Procedure: Northern blot analysis after Doc induction. The doe gene was induced with use of a pBAD vector by the addition of arabinose. At the times after induction indicated on top of the gels, total cellular RNAs were extracted and analyzed by Northern blot for ompA, tufA and ompF mRNAs.
Polysome patterns of cells without (left panels) or with Doc induction (right panels) using cells harboring pBADdoc. Polysome patterns were analyzed as described in FIG. 11 with and without Doc induction by the addition of arabinose. Polysome patterns were analyzed in the presence (upper panels) or in the absence of hygromycin, an antibiotic that blocks translation elongation reaction.
Data set [13] deals with E. coli. It is filed as cell-based.
Data set [14] deals with E. coli cells. As to conditions: MazF induction (Zhang et al., 2003b); cited from earlier work.
The target in data set [15] is T6, YafQ with His6 tag at the carboxy terminus (E. coli K12, UniProt Q47149 1-92).
T6 construct: not shown: C-terminal His6 tag from the pET vector
T6 sequence (looked up): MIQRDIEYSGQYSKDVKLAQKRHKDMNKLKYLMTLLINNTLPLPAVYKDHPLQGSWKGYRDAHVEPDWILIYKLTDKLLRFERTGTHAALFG
In words: affinity chromatography, co-purification via His6-tagged YafQ.

d = 2'-deoxy (DNA); r = 2'-OH (RNA)

As to “RelE: E. coli toxin, ribosome-associating factor that stimulates ribosomal endo-ribonuclease activity”, the “toxicity / growth inhibition in yeast” value in data set [1] is “prokaryote-specific growth inhibitors”.
With “dGdAdTdArUrArCdGdTdAdTdG (GATAUACGTATG; sugars from the 5' end d4 r3 d5, backbone not given here) [CBS-2]”, the “cleavage by MazF” value in data set [2] (substrate not yet synthesized) is reported as “not by MazF”.
For dGdAdTdArUdAdCdAdTdAdTdG [CBS-1], the “function as substrate for MazF” value in [2] (MazF fused to trigger factor, 37° C., pilot experiment) was “suitable and sensitive substrate”.

B1: HipB (other, E. coli K12, UniProt P23873 1-88, looked up)
chain: MMSFQKIYSPTQLANAMKLVRQQNGWTQSELAKKIGIKQATISNFENNPDNTTLTTFFKILQSLELSMTLCDAKNASPESTEQQNLEW
notes: also called HipB antitoxin
On to B1, for which the binding result in [3] is on record as “binds”.

B2: ChpBI (other, E. coli K12, UniProt P08365 1-83, looked up)
chain: MRITIKRWGNSAGMVIPNIVMKELNLQPGQSVEAQVSNNQLILTPISRRYSLDELLAQCDMNAAELSEQDVWGKSTPAGDEIW
notes: also called ChpBI antitoxin
As to B2, in data set [4], the binding result is “binds”.

B3: YdcD (other, B. subtilis, UniProt P96621 1-93, looked up)
chain: MSESSARTEMKISLPENLVAELDGVAMREKRSRNELISQAVRAYVSERTTRHNRDLMRRGYMEMAKINLNISSEAHFAECEAETTVERLVSGG
notes: also called YdcD antitoxin
For the molecule B3, the binding result in data set [5] is given as “binds”.

B4: RelB (other, E. coli K12, UniProt P0C079 1-79, looked up)
chain: MGSINLRIDDELKARSYAALEKMGVTPSEALRLMLEYIADNERLPFKQTLLSDEDAELVEIVKERLRNPKPVRVTLDEL
notes: also called RelB antitoxin
Take B4: in [6], the binding result is “binds”.

B5: MazE (other, E. coli K12, UniProt P0AE72 1-82, looked up)
chain: MIHSSVKRWGNSPAVRIPATLMQALNLNIDDEVKIDLVDGKLIIEPVRKEPVFTLAELVNDITPENLHENIDWGEPKDKEVW
notes: also called MazE antitoxin
As for B5, the binding result in data set [7] is given as “binds”.

B6: YoeB: E. coli toxin of the YoeB-YefM TA system, 50S ribosome associating protein (protein)
chain: MKLIWSEESWDDYLYWQETDKRIVKKINELIKDTRRTPFEGKGKPEPLKHNLSGFWSRRITEEHRLVYAVTDDSLLIAACRYHY
modifications: left off: small tags and cut ends
notes: E. coli toxin of the YoeB-YefM TA system, 50S ribosome associating protein
As for B6, in data set [8], the “position of primer extension block downstream of the initiation codon, ompA mRNA” value stood at 3 bases and the “position of primer extension block downstream of the initiation codon, ompF mRNA” value is given as 6 bases. Further, in [9], the “time after induction until cellular protein synthesis is almost completely inhibited” value is recorded as at most 5 min. Besides, the “time after induction at which a substantial amount of full-length lpp mRNA is still present” value in data set [10] is reported as “more than 1 h”. Besides, the “shift of the toeprint band upstream of the normal toeprinting band” value in data set [11] is listed as 11 bases. In addition, in data set [1], the “toxicity / growth inhibition in yeast” value is on record as “not toxic”.

B7: Doc: toxin of the Doc-Phd TA operon from phage P1 (protein)
chain: MRHISPEELIALHDANISRYGGLPGMSDPGRAEAIIGRVQARVAYEEITDLFEVSATYLVATARGHIFNDANKRTALNSALLFLRRNGVQVFDSPELADLTVGAATGEISVSSVADTLRRLYGSAE
modifications: left off: small tags and cut ends
In the case of B7, in data set [12] (120 min after induction), the “degradation of cellular mRNAs” value is “not degraded”. The polysome pattern result in data set [12] (after 2 h induction, without addition of hygromycin) is recorded as “did not change”.

B8: YafQ: E. coli toxin of the YafQ-DinJ TA system, sequence-specific MIase (protein)
chain: MIQRDIEYSGQYSKDVKLAQKRHKDMNKLKYLMTLLINNTLPLPAVYKDHPLQGSWKGYRDAHVEPDWILIYKLTDKLLRFERTGTHAALFG
modifications: left off: small tags and cut ends
For the molecule B8, the “toxicity / growth inhibition in E. coli” value in [13] was “growth inhibitor”. The “toxicity / growth inhibition in yeast” value in data set [1] is “growth inhibitor”.

B9: MazF: E. coli toxin, sequence-specific (ACA) endoribonuclease, mRNA interferase (protein)
chain: MVSRYVPDMGDLIWVDFDPTKGSEQAGHRPAVVLSPFMYNNKTGMCLCVPCTTQSKGYPFEVVLSGQERDGVALADQVKSIAWRARGATKKGTVAPEELQLIKAKINVLIG
modifications: left off: small tags and cut ends
For the molecule B9, the “time after induction until cellular protein synthesis is inhibited” value in [14] was 15 to 20 min. Further, the “time after induction until full-length lpp mRNA disappears” value in [10] was at most 5 min.

B10: DinJ (other, E. coli K12, UniProt Q47150 1-86, looked up)
chain: MAANAFVRARIDEDLKNQAADVLAGMGLTISDLVRITLTKVAREKALPFDLREPNQLTIQSIKNSEAGIDVHKAKDADDLFDKLGI
notes: Co-expressed with YafQ from a pET vector; the His6 tag was added only to YafQ; also called DinJ antitoxin
Regarding B10, the binding result in data set [15] is given as “binds”.

The values are drawn from US20100234287A1, “Targeting Bacterial Suicide Pathways for the Development of Novel Antibiotics” (UNIVERSITY OF MEDICINE AND DENTISTRY OF NEW JERSEY, priority 2006, published 2010).
